Target: T1, ELIC 7′C pore mutant (L238C in the cysteine-free background C300S/C313S) (Erwinia (as in the name Erwinia …))
T1 chain: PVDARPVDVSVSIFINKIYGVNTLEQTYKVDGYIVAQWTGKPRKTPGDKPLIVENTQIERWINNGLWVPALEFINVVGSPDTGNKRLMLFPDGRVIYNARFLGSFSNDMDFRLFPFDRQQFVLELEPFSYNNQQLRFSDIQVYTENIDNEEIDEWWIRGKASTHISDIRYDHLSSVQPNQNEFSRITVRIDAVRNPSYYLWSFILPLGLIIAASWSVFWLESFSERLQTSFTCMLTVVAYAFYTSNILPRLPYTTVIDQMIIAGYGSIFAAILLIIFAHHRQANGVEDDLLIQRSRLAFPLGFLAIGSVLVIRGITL
Test: crystal structure

B1: nanobody 72 (VHH)
VHH: QVQLQESGGGLVQAGGSLRLSCAASGRIFSTNVMGWFRQAPGKEREFVATVGRIGGSTVYADFVKGRFTLSRDNAKNMVYLQMNSLKPEDTAVYYCGARIGGSDRLAPENYGYWGQGTQVTVSS
stoichiometry N: 5 Nb72 per ELIC pentamer

From PMC8423587 (Nature chemical biology, 2019)
